Test results published in patent US20250084169A1.
Read-outs that look alike come from different tables or passages of the source.

Experiments:
[1] = target: cynomolgus monkey Fc gamma receptor CD64 (cynomolgus monkey)
[2] = target: cynomolgus monkey Fc gamma receptor CD64 (cynomolgus monkey); remark: listed apart in the source
[3] = target: cynomolgus monkey Fc gamma receptor CD32a (cynomolgus monkey)
[4] = target: cynomolgus monkey Fc gamma receptor CD32b (cynomolgus monkey)
[5] = target: cynomolgus monkey Fc gamma receptor CD32a (cynomolgus monkey); remark: listed apart in the source

Tafasitamab-cxix (research grade biosimilar) (antibody), sequence (heavy): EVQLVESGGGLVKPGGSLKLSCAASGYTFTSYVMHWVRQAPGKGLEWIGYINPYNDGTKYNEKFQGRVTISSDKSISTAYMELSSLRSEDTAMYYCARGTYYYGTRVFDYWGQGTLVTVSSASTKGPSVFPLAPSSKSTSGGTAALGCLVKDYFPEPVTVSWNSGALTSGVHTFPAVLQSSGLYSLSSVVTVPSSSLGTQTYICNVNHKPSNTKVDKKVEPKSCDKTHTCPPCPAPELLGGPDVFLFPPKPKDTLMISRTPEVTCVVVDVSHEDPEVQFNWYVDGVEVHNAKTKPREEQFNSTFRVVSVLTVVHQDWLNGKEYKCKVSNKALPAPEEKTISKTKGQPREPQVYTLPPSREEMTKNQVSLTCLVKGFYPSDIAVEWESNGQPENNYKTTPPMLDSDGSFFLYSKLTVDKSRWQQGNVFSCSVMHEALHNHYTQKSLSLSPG
Tafasitamab-cxix (research grade biosimilar) (antibody), sequence (light): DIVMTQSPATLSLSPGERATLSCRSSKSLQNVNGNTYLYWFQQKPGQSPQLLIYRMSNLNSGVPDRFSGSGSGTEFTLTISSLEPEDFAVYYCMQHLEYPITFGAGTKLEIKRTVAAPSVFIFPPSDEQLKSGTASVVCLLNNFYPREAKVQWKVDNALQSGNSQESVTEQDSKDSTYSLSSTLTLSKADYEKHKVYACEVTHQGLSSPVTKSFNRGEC

Kd [1] [nM] | Kd [2] [nM] | Kd [3] [nM] | Kd [4] [nM] | Kd [5] [nM] | Substance
< 0.02 | 1.8 |  |  |  | Tafasitamab-cxix (research grade biosimilar) (antibody)
< 0.02 |  | 3130 | 1460 | 5940 | Rituximab (antibody)
< 0.02 | 1 |  |  |  | FMC59-S239D/I332E (huFMC63-S239D/I332E) (antibody)
